These results are taken from the NTF2 design screens of Basanta et al. (2020).

This data set in a line: protease stability score; higher = more stable; yeast display proteolysis, trypsin and chymotrypsin.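 Also: relative to predicted unfolded state with 0 unfolded-like and 1 meaning tenfold more protease.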
Sequence “HEDEDILREALKTLRHSIQTGDEDLLRELMDPNVRLETEHERLHGWEYVSKFMMDLYKRYDHMEYTVHDYKVYGDFLRVDVQLDVKQGEKDDVISTHMLALKFDGKWHIKKIIIE” displayed a protease stability score of 1.56.

On to “DELDEFREYWIRYVEEVFRTGDFEKHLSLMDPNARVLVDGKELHGREFLEVHMRRIKNATVRDVHHHDMEIQGDKVTLDVDVHVNVNGRDVDKHVLIISEKVNGRWISRSLEVR”, for which the protease stability score was determined as 0.628.

Take “SDEEERLERVSELLLHAIETGDWRILAELADPHVRLEIGDKEIHGREIVVDLIRKEYDKYKNMRITNEDFDVQGNKTEWHVNIHIGDKEVRIHIYNVVINGKIRRRHIHIR”: the protease stability score was 1.23.

“DETEERTRKAIKLSLEVLRTGDERVISEMADPHVRLDFNGRQLHGREEFVHHIVRFFEEAGINYLHIEDWDVFNGVIIEHVRWNFNGREVEVEIIANKVNGKWLIKEFRIK” gave a protease stability score of 1.07.

Consider “SEEEEEMRRWFEILIRAIRTGDEHVLKRLIDPDAQEDVNGKRIHGMEDMSRLLSEMRIKSWEIRRSHFVGNKIELDGHRRGHVNGRDIDDHVIIHILKIDGKWTLHRVEVS”, for which the protease stability score worked out at 2.12.

With “SEDEEFFKKALDLVFEYNRTGDERSMNELADPHVKVDINGVTLHGWEEFSRHLRELRLKTFKLDDLDSQGDKIITKGVFHHHINGRTIDLDVIIFTRKINGRWVLEKVEFK”, the protease stability score worked out at 1.35.

For “DDREEKIKRAWETFVHNVRTGDEDSNEELADPNVKVLFNGREFHGMEQLSKFFKHLRVHDFVLKDIRVVGDKVHVEGLVDGEINGKRELTTMHMVFIKFNGRWIIQSVEFK”, the protease stability score was determined as 1.53.

“DEFEEAIKLVDDIRSFALLTGDEKELKHMADPNVKLDFNGVELVGMERVWKFFEEIRLVERHVHIKDRDVQGDKVRVDGRQDIEVQQGDKKSRMDIRLDIIIKKVDGRWIVHSLVLI” gave a protease stability score of 0.77.

With “DEDHEQAKRVFDELVDNTRTGDFDNLRKLMDPHARLVINGRNFIGREEVIRVMHEIRIETHRIRSIRIINGQARIDVESEVDINGRTEETRVEIIVFKVDGRWYLHTLRIV”, the protease stability score stood at 1.99.

Turning to “SEEERIMEEVSNLILDILYTGDWRRFLKLADPRTRSEINGVELIGMENHFKMWEHWRIKHIDMHSHESQGDKAIAHTRHRGEINGRERDVDTNLFVLVVNGRLKQIRLEFV”, the protease stability score amounted to 1.25.

“SEENELAERFFKELRDHFETGDEDVLDEMADPNMKLHINGRNFHGMHVYSKLARWLVDHWRSEFKVRRIEVQGNKIIIDSQLTLHIDGQRIIHDTRMESEKVNGKWLLRQFIVV”: the protease stability score was found to be 1.71.

“DRIEEEFEFALRHLIHNWVTGDETRLQKLADPNVRTVFEGREHHGRESFTELVHEIRFHDFRLRDYKIQGNKIVVDGEFDVDINGVRRIIRVELEIIKINGRWYIHSISFL” came in with a protease stability score of 0.203.

For the sequence “TEDIEHMIKVVEIFLRAVTTGNEDEMKYLMDPRMRLVVGDKIHHGWEEIWKFLEHIREERDKVHTKDTKVYNGRMDINSRVSSTIHFNGVRIEIDHEVHFHIKKINGRWFIEEIRIQ”, the protease stability score stood at 1.3.

Sequence “SEIEEELSSDRRDFIRAVLTGDFERHIEQMDPNVKLIFNGKEFHGREEVHRSWEELIDRWGVDKFEYRIEDMEHFPGHLMIHGTLNYNGKRERVIIYAVKFNGRWRVERVEIK” registered a protease stability score of 1.55.

In turn, “DEEHEIIRKMFEIVKDMFKTGDEEITERLLDPNARIDIDGRDIVGRESVLWLFSQFKNLRHRDDRIDYQGNFVIVRGKLDINGRRVEIEIVAAKVDGRWILHSIKMQ” registered a protease stability score of 1.43.

The sequence “SEEEYWAKEMAILLDIAWYTGDEERFEEYVDPNTRIDFDGRVFHGREFLHHFRERVDHMREVRSRIESVHKQGDKLRVHGHLIIQGVIDGVDTQQRFKVHFIMEKVDGRWIFREEIYK” had a protease stability score of 1.51.

As for “DEEEEEVKKVFEMLEKSLETGDEKLWEHMADPNTRIDIGDKEIHGRESFHEIVKHIRIKDIRMRIHEWRTYDGRLDLRGQVELHLNINGKHLDITVEHRLIIVKINGRWLLEEETIV”, the protease stability score is -0.109.

The sequence “DEHTHEIEHMLRHFLETLETGDEERYDRLADPHTRIDIGDKHLHGREKAQKLWRHWWKRFDHIHHLHIHHLEAVDGVNHVELREDIRVDGRRVIIRSLLILVVIDGRLREVRVEER” gave a protease stability score of 0.496.

“DELHEDAEKAWRYRLEILRTGDPDSILELMDPDVRIEQGDKKFHGRELTEKFMKWLMDHARYEFFHLKDMRTYGNKVETDGYVVGNVDGQEHIVHVHVYSLKVNGRWTIKSIEIK” registered a protease stability score of 1.37.

In turn, “SEEDEKKEEETRLMLEWWRTGDEHAIARNMDPDARLEVDGKERHGREEVLRFISEMLKRLGVDHVRITDWRIIGDFVEVDLSIEVGDKSRKFHLHFFIIDGRIKEIKIDER” came in with a protease stability score of 1.39.

“DEEEKVEDDMLHRWLQYFLTGDEEHLLELADPRVRVRINGKDDHGMNAVERFWEEYRRKFKNVRIHIHDMRYYDGVIHVDGILQINGKTLKIEFIIVIVNGRIRFITENIR” returned a protease stability score of 1.73.

With “SEEDEERKHFLELWRESFETGDEDSSRDMADPNTRIHIGDKEQVGWEDVMHEMVKIKNARYHIVVHHVEIQGDKLTMDGEVRIDVNGRLIQIRTIIIARKYDGRWIVTHVHIH”, the protease stability score was determined as 1.3.

The sequence “DEHEHQADHMQEILIRSHETGDEDLIREFFDPHARLDIGDKHNIGRESIKRFIHELLRILGLDNITLRVRHKTIQGDKIITHLELEVNGKRLEVIIHNEKINGQWSVRKVEWR” came in with a protease stability score of 1.98.

In turn, “KDTKRALDELSELELHADETGDWRVKHELLDPHTRIVIGDKTIHGREDMLTLMKKLQEHWRLKTIEIHHTEVVDGRIDADTILVGIVDGVERELRVRLIILKINGRWIYTSIKFD” displayed a protease stability score of 1.14.

“DEDEEFAKELLERTAESIVTGDEDMWREYFDPHARIEFNGKDYHGWHEFERMLRELRVHRVEVEVKRVHLYDGRMDVKGELHIKGTFDGRRVEESTDVDYFIIKIDGQWYIRHETII” returned a protease stability score of 0.761.

“DELREESEHARQLYWRSIFTGDEDHFEKLLDPNARVYVNGKNLHGREDVLRVFHELRFRRLHWHDFDDQGDKLFFITKTVVDFNGVKMEQRTELYLRKVDGRWHVEEIRFE” showed a protease stability score of 0.997.

In the case of “SEDEEKATEMIEQLSRAILTGDEHTLHKLLDPRTRIVVNGRRIHGRELWLKFFRELRFHSDDMHIHSQEVQGDKAFFDVHWLGTRNINGVKEHSHTKTEVILLKYNGKWIVEELRYE”, the protease stability score stood at 2.17.

“SEEDEMIEELMRTIIRLFHTGDWEKKAKLMDPNTRSVIGDKHAHGREEIVRLFLEYWRELGIDHISIHDVKLQGDKVIVNGKLRVGEKTIDVRIHYVVVNGRLKSERFEEE” had a protease stability score of 0.327.

“TEEEELAHHLVRLLIELWRTGDEEILRHLADPNVKLIYGDKTDHGREKSHRWMKELLDRYDHVEIIIRREEVQGEKAHSDVELVVNINGVREVYEVHLHFIVVNGKIREERIEVR” displayed a protease stability score of 0.989.

For the sequence “SESEHLLHTAHELVLRLQETGDWDEIIELADPNVRMEIGDKEIHGREEFERWSREMRFEHVEIHDMRVQGNKADLDGRMRGHFNGRTIDTRVKIIFHKVDGRWLITSYHVK”, the protease stability score was 1.18.

The sequence “DHEHRFMEETLERLLHVWRTGDESLIHELADPEARSDVNGREHHGRERFVDTVRHLGVKHVELKDWTIQGEKVHLSTEVDVGDKTFDFEIIIYKINGKWLIHEMRVK” registered a protease stability score of 0.945.

Regarding “SEVEEFVKRVIHLFHKAFLTGDEHTLIELIDPNARYDVDGRDVHGREIIVEFISTMWRDRGIRIKHVHIEERRYINGRIEIHSKIDVTIGDKREHLETSMIWVKINGQWFIEILIVR”, the protease stability score was 0.233.

Sequence “DELTRQMRTFAERWIHAERTGDEEILRELMDPHAKLDVKQGDKRHDWHGRERITEFIRRMGIKHIQVDHVELQGEKIHMHVTMYVDGQVLDSTLKLWVVDGVTKSVEIEFK” came in with a protease stability score of 1.2.

“DEEKKSSDIAIHESLRVLKTGDEHDISEMMDPHVRIDINGREIIGMELASEIHHEIMNRIKNVRIEVKDRKLVNGQIILRGELRWNGQTVELEVTLKKINGKWWMESLHVR” gave a protease stability score of 0.606.

With “DEDTQRREEWHHQFIMSMRTGDERLLLELVDPNYRSDINGVELHGWEFAEKLMRDAGVKHYELKRVHHIGDKMIVDGVTTFNGKERRVIFIARKIDGRWLITSSHFE”, the protease stability score was 1.31.

With “DRERLADELRRRLEKVMTTGDPTELDKLMDPNARILYGDQKFHGREHVKEFAKTLNDQYDHVTIRLVSYDIKNGEIHIVVDVVFRHNGQTRTKRINFVARVHGDKVKIESINIP”, the protease stability score was 1.48.

In turn, “DEEQTQMEETVNVVLSAMRTGDEETSKKLADPNVKIRINGREFHGRDFYAHVILMFGIDHIEMRIERYEFQGEKLILRGRLRLEFNGKEETSDVIEIWWKVDGRWHLDNYYEN” displayed a protease stability score of 1.37.

In turn, “SQDKETSDEAFRIWVESYETGNEHLEEHMVDPNARSRVGDKELIGMEHFIKIMEKIKNATLEIRHRSYTEIDGRLRWHTQLYIEYGDKRIEREIIIIVHKVNGRWSIEHFEVR” returned a protease stability score of 0.973.

On to “SEEEHLLKFFLDVLMDLHSTGDERKLYELFDPNVRIEYDGKETHGRERAREQFQEMRVRVEHVHIKDLTLQGDKVIIDTKVDMTIHIDGKTIREDRKLQVDFDKVDGRWTVHELIFR”, for which the protease stability score was 1.13.

In turn, “REEEKLWEHIFHLFIEDVLTGDEDRLREMLDPNVRLKAEGHDDHGRESMVKFNEELHKEIRFERIHLRRIHIIDGVSFMDVQIDGTVNGKHRSLESEIRIYIVDGRIRMVELRIR” gave a protease stability score of 1.25.

As for “SEIDEWLHRWFNLWIDAFITGDEDFLKELADPDVRLVDGDFEKVGREEFTRSMRQYLRHARVDHFRIKHQHMQGDKIHVHGHIEMTINGKHIRHEIRLRFVVINGRFHSMHIEID”, the protease stability score was found to be 0.975.

Sequence “SEHEEASERMTRLTLHLFETGNEEVFNRLADPHTRVIINGQEHVGRETVIEFLKKERDELGADVLIIKDIDVERQGEKVEVIFHGEIKFNGRYYKVEIIIIYLKVDGKWFIESMKHIVK” returned a protease stability score of 2.37.

The sequence “DELEDLAQKTHELFVQHYRTGDEDHLRHLLDPNAIMEIGDYHFIGREEILKFLVHWRIHRSEIKHLHVQGDKAEQEVEVDIEIGDKRFRTETHSIWIKINGKWFMHDFTVK” displayed a protease stability score of 2.17.

On to “SEEEESAKWFNHVRHEAERTGDEETLLRLLDPSVKSTYGDKTSHGRHEMEEIMKRLGVSRVHLDIRHVEVQGDKVNVDGLVEFDGQEMRVILIVLKIDGRWIAEHVIVH”, for which the protease stability score was -0.118.

With “SEEEELIHILERLIIEFRRTGNEEAWMNLMDPHAKVEIGDFDLIGRDEVSRWLHHLRIDDIHITLRRFRDIDGRVISYGEENIRVDFNGQHVEFRRRSILILFKVDGQWYIESIHVH”, the protease stability score is 0.959.

For “SEDDHELKEELKIIMKSSLTGDEDTLNRLADPHARIHQGEFNLHGREEFSRLFVELRMHDIRIEDYEVIDGRVEVDIRLNIHYNGKRYIKVTRSVFRKVDGRWLIEEVRYD”, the protease stability score was 0.494.

“SEDEEETRESLELLMRSLKTGDEHQIRRMFDPDALTVIDGREFHGRERATHAMREWKREIRIKEIRIRDWKTQGEKVHLDIEVVTEVNGVEDRREVKLLLIKVNGRWFIHSIHIH” registered a protease stability score of 1.43.
